Test: soluble on expression in E. coli; label from the status in PepcDB or PDB records

Soluble on expression in E. coli, not soluble:
MGSDKIHHHHHHMPTPHLDTALSGPILDLERCILNAMPSIEQWLRNEWQTHAAPFYCSVDLRNSGFKLAPVDTNLFPGGFNNLNREFMPLCVQAMMAAIDKICTGARSVLLIPESHTRNIFYLQNLAALHAIMRHAGIHVRIGTLLPEITAPTALDLPGGNKLTLEPIQRKGNRVVLEDFDPCVVLLNNDLSTGTPAVLQNLEQTVIPPLHAGWTSRRKSHHFTAYDNVSQQFASLIGIDPWLINPYFASCGKINFREKKGEDCVANTVDEILHQIREKYAEYGVRKDPFVIVKADAGTYGMGIMTVKDGAQVRTLSRKQRNKMAVVKEGLEVTDIMVQEGVYTFENVDDAVAEPVIYMIDRYVVGGFYRVHTERGVDENLNAPGMHFVPLAFEDTCLLPDREAQPGCSANRFYAYGVIARLALLAAAQELEKSEARIEAIMA
MGSDKIHHHHHHMPTRSTPTERQKRLGAELRKMRLAAGAPTEYAAGLLGIDRTRLSNMESGIRPFSPDRVRTLACNYSCTDDGYIEALVAMTSTKERGWWERHRGILPSGLLDIAELEWHATRVRTAQVMHAPGLLQTEDYARGVFTAVLPPLTRLEVELRVAHRMERQQVLERPSPLPYIAYVHEAVLRMPYGGTEATQQQLKHLCSQSERENIEVRVIPTSTGGFPGAGHALLYADGAVPQLDTVQLDSAHGPEFTHADAQLTKYRSHLNWMDGAAMTSAASRDLIRKIARDL
MGSDKIHHHHHHMPVVDAAWEEWLSSNVARGCSPDSMIDAMVQAGFATDAARVAVHKTFGQNPANPAFAAAAATEAALAKAAPQTYQYDDPPVARGNLIRAYDRDVRVVMRCERPQVIVFADVLSPDECAEMIERSRHRLKRSTTVNPATGKEDVIRNRTSEGIWYQRGEDPFIERMDRRISSLMNWPVENGEGLQILHYGTTGEYRPHFDYFPPDQPGSAVHTAQGGQRVATLVIYLNDVPDGGETIFPEAGMSVAASQGGAVYFRYMNDRRQLDPLTLHGGAPVLAGDKWIMTKWMRERAYG
MGSDKIHHHHHHMQEIHTIMKHMDALIADPSAAAFKATLPFAELLEKLHNKKALFDAALAKSAERADAGRIIGKTSHIDALAYLLDISKSEAFRRTKRAEEHYGNPSPEPSSEELAKETPEEKLAREEKEKQDLAEQAEANRIAREHGISAEKQDTIRYELEKLNDNTSLSRASLRKLAMQEATSRTPEDLRNWTRNKVIRINPTAKDPLAAVKKRSLSIGRQDHDGGAKASLYLDAKGLALLKSLMSKAKPGHLLEDSLAEDKRTKPQRQYDAFADILHRAHSDLLPARSGVGTILVSLSAKDVTNLKASGPDHRYPTSTGIKLTPLEILRLGAAKYDFVTVLDSESGRPLHLARTQRTASLYQRLALFASELVCTREGCDSPFEDNEIHHIRSWLDGGPTDIENITNICPHDHGNNNDQRDGKDNMGHMNIDPTTGRVGYQPADRRKPMRFNNTAAAAESGGAQART
MGSDKIHHHHHHMQIKEFLISRRSEVVNNFYDNYYTQTDEYKLRLSAGEDEQSIRSLSTASCGMIIDVITGVKERDFENIGKRRFNDKTDIRKIHQHMSEIDKFIINSLLKWKETEDVFYTDADIIQFMLEIKDTLASIQQQLLEGFMQENRNQVMAQRKEIIQLSTRIIPITDSIGVLPIVGSLDDDRGYFMKEKAIESADKLNLDFIVIDFSSAVLKDDFATKHMEDMIQSFKLIGLIPILSGMQPSFAQRTIQVGSNISKLQSFGSLEQALTNLGL
MGSDKIHHHHHHMQINRLFEIIYILLENRTITAAELAERFEVSARTIYRDVEILAQGGMPIYMSKGKGGGISLLPDFILNKAVLTEEEKSEILSSLQAFNAVNLSKSETALSKLTSMLGAKNTDWIEVDFSSWGHFENDRAYFENIKTAIIEKKIITFMYASGKAEKLLREVLPLKLVFKGAAWYLYGYCTLRRDYRFFKLRRITELAVTDTGFEMKTPETIFAGQKLDTGTYLKAKLLISKTMAFRVYDEISSYEIDEKGDFVCRLYLPDIATLCTYAASFGEHCIILSPEQAVAEMKRRLQNSLKNYS
MGSDKIHHHHHHMQKSLEKCSAIDYLIVLGGRHVNETIYLADERKRLPSLVKHHRASPGRLIRECEIPPLFDVIISGEAEKLIAEIGELFSRCNQSPATFIAENLDMKTEGRWIADFPRIDNTLVSDGVPLKRDELPSVVGTFGVTASFDVFEGRMTSHIFSDTGPGCIYDCNFCSERRSIAGNIQDIQGAPRRLYNQLNETVSAVMQDHPSKGASAFVEDSIFLSGSPVAITQLCQLLEKAPLEVIFGGQFTIDQILRKKDLIQRLAKCGLRYIFIGLETLEPQEIGGMSKDVDGNKQTWKDRFLQALDFMAANHIDCGCALLFGLGEAHISRRNLLNGLIKLKQETGQPITLSANWAVRHPLRSSRESENENYLRRGTPEGELLEYFHRFGEASLEYPLPNVCAPQVGEVKEIILLLNEFEASDA
MGSDKIHHHHHHMQLAQARNDNGERFVLVIEDDPTQARRLDDVNSVHALALTALDRKVGLAALIKEWPGDARVDAVALADKGQLLAPLDHPDPAHLLVTGTGLTHLGSAEGRDKMHRQMNEADQSDQPLTDSMKMFRKGLEGGKPAPGDFGVQPEWFYKGDGGIVMAPGEALRMPHFALDGGEEPEVAGLYLIDNDGVPRRIGYALGNEFSDHVTERENYLYLAHSKLRACSFGPTLLIDELPDDVQGTSRIRRGDEVLWEKPFISGEANMCHTLANLEAHHFKYAQFCRPGDVHVHFFGTATLSFSDGIIPQPGDVFEIDAKPFALPLRNPLSKDAVAPAPSVKPL
MGSDKIHHHHHHMQLPISQYNELLQKKLEKLTALLHPFNAPDIQVFDSPTSHYRMRAEFRIWHEQDDFYHIMFDQATLQRYRVDEFPIASMLINRMMQTLLPLLKQQEVLHKKLFQIDYLSTLSNKIIVSLLYHKTLTEEWESAAKNLKDLLEKQDFDVQIIGRASKQKICFEQDYVDEVLPVNGRNYVYRQVENSFTQPNATVNCKMLEWAIDCTQNSEGDLLELYCGNGNFSIALAQNFRKVLATEIAKPSVAAAQFNIAENKVDNLQIIRMSAEEFTQAMNGVRAFNRLKGIDLKSYECNTIFVDPPRAGLDPDTVKLVQNYDRILYISCNPHTLCDNLVELSKTHRIEKAALFDQFPYTDHMESGLWLIRK
MGSDKIHHHHHHMQLPSLQSATLIRRYKRFLADVQLPSGDITTLHCANTGAMIGCGSQGDTLWYSTSDSATRKYPSSWELTQLANGHLVCINTHRSNQLTFDALQKKQIIELAMYDKIYPEVKYGEENSRIDFLLKGKDLPDCYVEVKSITYVDNDKKLGMFPDAVTTRGQKHLRELISMKKQGHRAVIFFCGLHDGFDHFQIAKHIDARYDELLHQALKEGVEAYAYAAEFEKTQGIPTALNLTKVAPFKAG
MGSDKIHHHHHHMQLQELHMLVVLAEELNMRKAAERLFVSQPALSQRLQTIEKAWGTKIFLRSQKGLTVTPAGEKIIQFANDVTLEQERIRENIDELEGEIHGTLKLAVASIIGQHWLPKVLKTYVEKYPNAKISLITGWSSEMLKSLYEDQVHIGIIRGNPEWKGRKDYLMTDHLYLVDTEISCIEDIAHTERPFIQFKSDSTYFQEIQHWWHQKFKTSPKQTILVDQIETCKQMALHGIGYAILPSVTLQNEDKVNKMPLLDMKGHPIGRDTWLLGYEPAFELKQVQAFVQVIKDMLDQENPF
MGSDKIHHHHHHMQNWLKQITTGAMIGTTVLVTSACTMRLSESTFIASDEVPVAFTAEFTQQLQQAMPNHLITPLSLEASDHVKLNGFYIDNPNSLTTLVFYQGNGMKIEPHGLSVLTTLSTLNTDILVMDRRGLGASEGQPSINNIIADAQQQLDYLHQQYQPEKVILHGYSLGSFIAADLAKNNKIDALILHGSATNADDWVDEKTPWYMAPFMTLEMPEDFRKTDNKQVVAQYYQGPLLVIAAEEDEEVPPELSEKLFVASQSANKQLIMVPNVGHQGMLDDANTMSQYQTFITEL
MGSDKIHHHHHHMQQHPVVSREEWLVKRRALLAREKEAIHQRDAITAERLALPWVKVDTRYVFDTASGKKTLADLFDGRSQLMIYHFMLGPGWAAGCPGCSLVADHLGGTLAHLNHHDVTLIAVSRAPLPEIEAYRQRMGWQFPWASSFGTTFNHDFRVSFTPDELASGAVDYNYTSTQSAQANDELPGLSAFYKDAAGNVYHTYSTYARGLEDLIGTFLILDRAPKGRNESGPMEWVRRHDEYGDAPKANACYEG
MGSDKIHHHHHHMQRENFGPAWLNENNAVMYFIVGTDIDVDIDDEIKTYEDIIQVDINENYHNITYKAIFWINEINKCRHGPKLLLKIDDDVHIDMIGLQFLIKRYSVMDDFMACRVISNGQVVRNNTSKWYLSKKDYKFPNLGTYCQGMVYFISGNLLPILHGNIEKSQFLWMDDWYVTRSLVGDYKISYYSLEQHSISPNTVREVYSSLMAIKTRKWRTIFAHFRPPQKFPMYRRRKIWANITEINNSCNILRKARINFVSAY
MGSDKIHHHHHHMQRQTELKNWLQTVYPERDFDLSFAAADADFRRYFRAAFSDGGSVVCMDAPPDKMSVAPYLKVQKLFDMVNVPQVLHADTDLGFVVLNDLGNTTFLTAMLQEQGEAAHKALLLEAIGELVGLQKASREGVLPEYDRETMLREINLFPEWFVAKELGRELTFKQRQLWQQTADTLLPPLLAQPKVYVHRDFIVRNLMLTRGRPGVLDFQDALYGPISYDLVSLLRDAFIEWEEEFVLDLVIRYWEKARAAGLPVPAEFDEFYRRFEWMGVQRHLKVAGIFARLYYRDGKDKYRPEIPRFLNYLRRVSRRYAELAPLYALLVELVGDEELETGFTF
MGSDKIHHHHHHMQSYSLAELNKETTIGGIGKTVERDVPVIDLADFDNRKAEIADQLWEASVGIGFFQVYNHGIPQQDIDAAFETAWSFFELPADIKAQYPMPKGTNAGWEFKAQVRPSTGTPDNKESYQITRPMMGGLWPSEEELPDFKEKMLRFERQNWELGMRILSCFALKMGFAEDFFTKAHDPASSEYQSTQRLIHYMSMEHAKPEDFEFWRAGAHSDFDCLTILHQKEGEGGLQVCPGKDAASGEWTDVPPKNGYITCNIGDMLMRWSDDQLQSTLHRVRMPRPGEYLGRRLSLPFFCQANRDAVMQGPLGKYEAITAGDYLTQRINANFARK
MGSDKIHHHHHHMQTEVFSDIFPLLSTATPQTLEWLLNIAIDHEYPTGRAVLMEDAWGNAVYFVVSGWVKVRRTCGDDSVALAILGRGDFFGEMAILDESPRSTDVIALSPVKLLSISRERFIQILFKDPQLHHRMLQLMVRRLRQINQRLQIRSSPPAVKLAHTLVSLGESYGQESEQGREIFNIPFKDLAEVTEIGVEETSKIMDKLHDKGWIKIDSANNIIYLINFKQLLNLAGKV
MGSDKIHHHHHHMQTIKLYIKDWLAIHPYIQQQATDRYFVDLANRLYSTCTIREIPESIKKKLCLYTAAYFEDVISGLGLWQAFIKKHLELYDTSLPFYTIRPDYIKDEINEEDIRFIIWNTLEKAPYKHPYINPMDRNIEETSHSFFRILDEEYETAPANDTLQDFFMDFKGKENANHKLRWLFGHTYLTEPSVQEYIAQVTETDKFIIPCGPLALFLHEWIDLLTNGETECWEEIEGLYPAIPEISDEMKERNHHTYQLFTQGTNGARIVYLEGYKELHRFLTQVLQWPDDSNHTLPQMKEHKDFIMMVNSEKGILLAKDICKYISDPLNPMYDAATAAQEAFSLLTIPTKCPPDLMEYVINNHYIPDAQFPEFGERELVQKNADFIARNSLLYYYRGD

Source: the DeepSol protein solubility set
